Article PMC11979002

Molecular target: HLA-DQ2.2 (DQA1*02:01/DQB1*02:02) with the covalently linked glutL1 peptide
Assay: SPR; Biacore T200; biotinylated HLA-DQ2 molecules immobilised on a streptavidin chip (about 3000 RU), biotinylated HLA-DQ8glia-α1 in the reference cell; serial dilutions of TCR flowed at 10 μl/min in 20 mM HEPES pH 7.5, 150 mM NaCl, 1 mM EDTA, 0.005% TWEEN 20; steady-state KD, 1:1 (single ligand) binding model

Substance | Kd [µM]
G9 TCR, β-chain R75A | 10.2
G9 TCR, β-chain S58A | 7.8
